{
  "source": "paper PMC8315802",
  "origin": "cited, not measured here",
  "key": {"[1]": {"molecular_target": "actin filament (Oryctolagus cuniculus) (UniProt P68135)"}, "[2]": {"molecular_target": "actin filament (Oryctolagus cuniculus) (UniProt P68135)", "remark": "listed apart in the source"}, "[3]": {"molecular_target": "actin filament (Oryctolagus cuniculus) (UniProt P68135)", "remark": "listed apart in the source"}},
  "note": "Where two headings read alike, the source gives them in different places.",
  "data": [
    {"substance": "Rng2 1-189 (from UniProt O14188)", "values": [
      {"measurement": "Kd", "setting": "[1]", "value": 0.9, "unit": "µM"}
    ]},
    {"substance": "utrophin CHD (from UniProt P46939)", "values": [
      {"measurement": "Kd", "setting": "[2]", "value": 1.5, "unit": "µM"}
    ]},
    {"substance": "α-actinin CHD (from UniProt P05094)", "values": [
      {"measurement": "Kd", "setting": "[3]", "value": 4.7, "unit": "µM"}
    ]}
  ]
}
